For this data set, the system named is Saccharomyces cerevisiae. Nature of the data set: transcriptional activation domain activity (GFP:mCherry ratio, weighted mean of sorted bins, harmonized to initial dataset scale) (arbitrary fluorescence ratio units); higher = stronger transcriptional activation. The note with it: beta-estradiol 1 µM; induction time 4 h. An outline of the steps:
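For this assay, yeast diploids with a GFP reporter carried barcoded protein tiles at URA3, each fused to an estradiol-inducible synthetic transcription factor. Induction was a 1:5 dilution into SC with 1 uM beta-estradiol for 4 hours at 30 °C, followed by sorting into 8 bins by GFP:mCherry ratio and barcode sequencing. Tiles under 50 reads were dropped, and activation activity was calculated as the read-weighted mean of bin median fluorescence, averaged across barcodes and linearly mapped onto the initial dataset scale.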

In the case of “TLRQELPNFFIFGLNNTSIYSSNILLWEPRYTGLQIRGKWSYLMLAATIRWSL”, the “transcriptional activation domain activity” value is 54000.

“DGVTNTPVELGVAKEGGNLEVVNSRTALVVSKHWILLIGLLGRYGMRKDKGVL”: the “transcriptional activation domain activity” value amounted to 49400.

Regarding “MMRRWNELGLDGWVQNQHGLDSFAFLQLAFRLPICCIFPSKILVVFPLLLLSA”, the “transcriptional activation domain activity” value was found to be 52900.

With “RQQDSSQSDRDSSRDSRTRDARHHSRRDGERRQRAESNGNLRPAEESRRGRSE”, the “transcriptional activation domain activity” value came out at 25400.

In the case of “MPMDILVFYIPHRIKFCFFFFYLFIFFIFLPSYLIFYCTVTSAFLLFLYLYYL”, the “transcriptional activation domain activity” value was found to be 26000.

For the sequence “LLTFNLEVKRIWTLRWKLPKYLFVLNRYILPPFLFFEAFSNITYNLGKHVSRI”, the “transcriptional activation domain activity” value was 50800.

Turning to “MLSGLRHLRDEHIFAAAVGFFSHIYYYRYGEHHMQAPLLFWMHISVFLMLFYW”, the “transcriptional activation domain activity” value was 40100. In the case of “PFTELFRRFLFSNIRFTSKVTIISYIGTYYAIGAAWIMTTANYFAIGWFNGYL” it was 46500; in that of “AVPGEVTEAEADSDVKTDDAAAAPATDEAAKPKKKKKKFARKPRRKAAAPAEG”, 17100; in that of “AAPVKKEEPKKEETPKAAEETATAPVAETPAVAAAAATEAPKEEAKEEPKRRS”, 35400. The value for “NGLENAASVITILDKSSNGTFINGEKIGKGQQRLLKDGNEVSFGVCVRSTENN” was 24500; that for “RDRRRRSRSRSRDRRNKRRRRELEDRSKRRRSKSRVKNEETSEAEKRGRRRKP” was 37900. On to “NLHNASTSSFNNEAFWKPLDSAIDHHSGDTNPNSNMNTTPNGNLSLDWLNLNL”, for which the “transcriptional activation domain activity” value is 84600. In the case of “MVYCISFCLALFESLLYSIVADTNILIHYFLFFLLLFCQFVYFLNNTFFIFLS” it was 51800.

With “PDVLRKGAKFFCDETVLVKLQIVTLAAKLLVLSPNNLTLILLTKYVFGLARYD”, the “transcriptional activation domain activity” value was found to be 63000.

Turning to “NRVIGVQGKNQEGACYEKLSPSSTSVSVGMDFCSLENFVTAESLPDLLNLFWE”, the “transcriptional activation domain activity” value was determined as 111000. In the case of “PASNGHAEPETKPEPEAAPEPVEEKAATPAPATPAQPSPAPTPAPAAAAPSPA” it was 10200. In the case of “ESGESEESGRARSRRKRRRREERRGEEGKRRTRAGVRRSKGRKTERASTAGTD” it was 43100; in that of “RRNRRTDKKRNEKESEHEGSTRKRTSYDKDDERAHSDSRRSRHHHRKERKNRH”, 32100.

Take “IMTKSEQQIVKCVKLMLSSSEKRYRLFNDSFSVIIFRIVDMNYGLRLLNLIID”: the “transcriptional activation domain activity” value was 56100. In the case of “LPGGKYLFMVMKNNGGGSEKFALVLFDVEAQMTLLKASRILLLRARYITPKTT” it was 51400. In the case of “SIYLCTHGTFFVVVTPIYFDYPCCGNPLVLFSSTLGMIIHFILFFFCLPCFFL” it was 63100.

Regarding “KRHAKRRRDKRKQKEKKNSKRDESSSASDSDRRSQSSSRRSRSSSAGSKRSTR”, the “transcriptional activation domain activity” value turned out to be 17400.

“KLYQLKLKIFLYWQRYSYLYAKRKHSTKHHTLLVWSLKVKKLYGILWCFLLLF”: the “transcriptional activation domain activity” value stood at 36600.

In the case of “LLFTFCLYPSFLPFLLLSPLFFFLSLSPFSFFSLFSLSLPLLSPSLFSTPFIH”, the “transcriptional activation domain activity” value is 39600.

Turning to “MYCMRYFAPLFLLPFPDAPPFFVVLSLISFFLHQKPCIYCVFLLLALFSSTCY”, the “transcriptional activation domain activity” value was determined as 61400. In the case of “ALRRRTTDDGRLPREDLVHSEISVAVVSSPLSFASRFSPTPAVAVLVTALPVV” it was 80600; in that of “MSFFLSFFVLFCFYFYFTPCLFFSSHLLTFFFFSDSPLFVFYFFYFFFSSFVY”, 67700.

For “KQYCVRPNSGRIEPGKEVEVQVILQAMKQEPPPDTKCRDKFLVQAVAIAADKE”, the “transcriptional activation domain activity” value came out at 29700. The value for “PPPKGSDAALAAPPPPPGASGAPPPPPPKGSEAAAAAPPPPPPADASGAPPPP” was 26100; that for “SLNIDSMLDDYVSSDLLLNDDDDDTNLSRRRFSDVITNQFPSMTNSRNSISHS” was 52600; that for “AASAASEPAPKKRGRPARAKEEVVAAEPEPAVEQPKKGRGRGRKAAEPEPVAV” was 18700. In the case of “VTSAKPVQNAGKSRPTSPKPKNVEEREEEKPEVKPVAASPVKATPAPTAAAPV” it was 29000; in that of “EQPSAPAAAANSEEPDNKEAEKTETGAAAENKEAVANNGSESAEKEPAETSAS”, 23500; in that of “RPSSAVVHAPRSKRAALRPSAPARCPPSSSSSSSPSTSPSCRRPASPTTSTCP”, 30700. In the case of “ALYSLKGRELGWLCLTICTFDGKSWMEFGAFSRRGLFTYNYGLLQPNTKRIAV” it was 35700. Turning to “IKFGVPVALIVIIAAVVGGVLGSRASKNSSASSSAAGDSSSPSGEAAASGAAV”, the “transcriptional activation domain activity” value turned out to be 48300. The value for “SLSSSRVLGEHGNGPDGEGGFVHVSYRISLDEENELQMRVRPSERGGGEGVDG” was 39200; that for “YFMVYFIFYRNLFARLRSFDQFALVQLMSSFWVCIWYPFSMTSLCHRVVQYFN” was 69300.

In the case of “YSNSISNSNSNSTGNLNSSYFNSLNIDSMLDDYVSSDLLLNDDDDDTNLSRRR”, the “transcriptional activation domain activity” value was determined as 88700. In the case of “MNLTLFYYTFLLSFFLIYCVVLNLYLRFFPANFVNMPLFISLTFLKCAWIPLL” it was 56200.

Turning to “NSSNNNNNNNIISNRKQASKEKRKIPRHIQTIDEKLINDSNYLAFLKFDDLEN”, the “transcriptional activation domain activity” value came to 83500. With “EGEREREREGEEMEEVMREGTNREEKKEEEEEGKRKDKRRKETGNLLLLLVVV”, the “transcriptional activation domain activity” value was found to be 40400. Take “EAVKKSAERRDSATKSTSPAPAKEEKKEEGKKPEKKEAKPDDKKGEEAGEDKG”: the “transcriptional activation domain activity” value amounted to 10800. Take “ADSKTRNKRDGSNSTTSRSRSSRSRGEAVDDDGSSSSKRSSRSSRTDEGGAAR”: the “transcriptional activation domain activity” value came out at 41400. In the case of “LEMLSYGAGVHHAINILFTDGIFWVWYYDRQGILQSKGVSIFKDLPRFLLLLF” it was 52200; in that of “YYCLLWVRVSIKGQKGAVIAPEQIVIGWVDFHALIIVLWSNRISITLCVARVI”, 29200.

With “MPIGCLMRQVHWHRAEMREYQACLLIFQALLCTTGDPFAHILMYMWFGILYRF”, the “transcriptional activation domain activity” value came out at 58800.

For the sequence “LLVLYLVLSYLKHSHMEGLGEFMIKFFEECNVDPFSKVFRGGHYKESVFEGVY”, the “transcriptional activation domain activity” value amounted to 76100. In the case of “MELYGTHGVFYYYFFVIGFFLDYHSFLSPLLSLLMRIEKDVSGIFFFVFLFFC” it was 63700; in that of “MHYVFLPFFFFFLLFFLLFPLFFFFLPSFHLLLFLSSSLLLSFLSLAPATSHH”, 38800; in that of “GGEEGRRKEREAGGRGTQKGEEEGDEVGRGGRGRRQREGRERGEARAGAGRRR”, 30800. In the case of “FFTPPSTTYLRFFLSFYPLSPFIFFFIFLSFSLPLSSFLSFSISFFFTFPFPF” it was 36100; in that of “WGTTFRDEGSRVRVLMRRLARMMRLGGRTPCQSDHISNVHFSAPADWQSTWGT”, 48000; in that of “SKSEVSGTGRKAYAQKGRGKARVHSLRAPQFRGGGRAFPVKPRDFSSEIQIKV”, 61100. On to “RLWCFSRGFMLVNYNVLVLSCQLAWSSEFLMSFWTFVFVLILMLLYYFVWAHK”, for which the “transcriptional activation domain activity” value was 43700. In the case of “EEEAEPKPAASAPAVAPAADEEGDDQGGDDAAKKKKKKKKGKKDEDAEPAPAA” it was 35300; in that of “YLMHGLVLFSIVPSVFIPIYEYHQLSYIAASMICAFIYIIFAVICGWLFWWTV”, 40600. In the case of “MLINKLIVLRELCYSDDAAKQIVMYVISLFLSLIFYSFLPCLGLICLSILVPS” it was 49100; in that of “EGEEGEEGEEGEEGEEGTCCASPLQSLALSRLRLGLSLLVDCISIESMRTYRL”, 34500. In the case of “MNQTSRFFSPFFSPFFSPFFSPFFLLFFLFSLFLSFPSFLLPCFLLLFLSFYF” it was 48800; in that of “LYLSLLKRKTTIWFFVYVVLQNYFLSTLYGRNWFFLFSSQHAPTWSIWLLAFI”, 57300. Consider “IPTPFASHAFNPFDGFLQSLPYHLYAYFIPMHKYLYLSMFVFVNFWTVMIHDG”, for which the “transcriptional activation domain activity” value turned out to be 50600.

Take “EDDDERRRKESSSSSRRKDRDRDDDGHERKDRKDRKHGSHRDRETDREREKRK”: the “transcriptional activation domain activity” value stood at 33000. The value for “RSHAGRGRSRSREKHEHHRSHHHREKRRRESEIERRDSKRAASPKSKPSENIH” was 27100; that for “PDLSIYMVDAFVHVLITAGLRDSAAVLHERIMSEFLDRILLILRAAVRLNKII” was 62400; that for “EKRHEKKKGSRDISGADDRSSGRSKDRRDHSSRGSSRKRHGSRRDKDRDLEDG” was 25700. In the case of “AAAAAAAAETAADEKPAEEAGEPPAAEPEAAEPAKEEAAPAEEAAAAEAVPAP” it was 54300; in that of “SGDADEDGNGHGTHCSGTVAGKKYGVAKKASVYAVKVLRSNGSGSMSDVVKGV”, 45000; in that of “NASVTREVPQFDTSANQMLSDIWSWIYYSEEFLAIPPSMVEGYDFSWQGLLGI”, 120000.

For the sequence “ACFLGYPIQIDPTFTDFELLSSFSGVIDSCAQSDTLWDFNSFDVAAVLSPLLD”, the “transcriptional activation domain activity” value was found to be 143000.

Turning to “FKCCAVAFPIVCFATPYTALIQRPLVQQAAMFGIMIVKCFAVIFAFPCSIILL”, the “transcriptional activation domain activity” value worked out at 81600.

For “MVCFQITFLYSAFFPLFSFSFLLNIFPTISIFPHLLQILAAFFVLFYAFFSTM”, the “transcriptional activation domain activity” value is 55100. The value for “SLADEKERGLLTGDDNRDEYLGRNLRGMIHEFRWQTLVLLKCCLLQPKMLFFS” was 58100.

The values are drawn from the supplement of paper PMC12636428.
